Test results as given in paper PMC4904194, “Crystal structure of tyrosine decarboxylase and identification of key residues involved in conformational swing and substrate binding” (Scientific Reports, 2016).

B1: Lactobacillus brevis tyrosine decarboxylase in complex with PLP, holo form (enzyme, Lactobacillus brevis CGMCC 1.2028)
chain: MEKSNRSLKDLDLNALFIGDKAENGQLYKDLLNKLVDEHLGWRKNYIPSDPNMIGPEDQNSPAFKKTVGHMKTVLDQLSERIRTESVPWHSAGRYWGHMNSETLMPALLAYNYAMLWNGNNVAYESSPATSQMEEEVGQEFARLMGYDYGWGHIVADGSLANLEGLWYARNIKSLPFAMKEVNPELVAGKSDWELLNMPTKEIMDLLENAGSQIDEVKKRSARSGKNLQRLGKWLVPQTKHYSWMKAADIIGIGLDQVVPVPIDSNYRMDIQALESIIRKYAAEKTPILGVVGVAGSTEEGAVDGIDKIVALRQKLQKEGIYFYLHVDAAYGGYARALFLDEDDQFIPYKNLQKVHAENHVFTEDKEYIKPEVYAAYKAFDQAESITIDPHKMGYVPYSAGGIVIQDIRMRDTISYFATYVFEKGADIPALLGAYILEGSKAGATAASVWAAHHTLPLNVTGYGKLEGASIEGAHRYYDFLKNLKFEVAGKRISVHPLISPDFNMVDYVLKEDGNDDLIEMNRLNHAFYEQASYVKGSLYGKEYIVSHTDFAIPDYGDSPLAFVESLGFSEVEWRHAGKVTIIRASVMTPYMNQRENFDYFAPRIKKAIQADLEKVYASVNQKENV
modifications: PLP covalently attached to the ε-amino group of K392 (internal aldimine, Schiff base)
notes: Tyrosine decarboxylase (TDC, EC 4.1.1.25) of Lactobacillus brevis CGMCC 1.2028; domains in the structure span residues 7-618; also called holo-LbTDC; LbTDC/PLP complex; source: E. coli BL21(DE3) harboring pET24a-tdc, purified (Ni2+-agarose column); crystallized with PLP at a molar ratio of 1:4
B2: Lactobacillus brevis tyrosine decarboxylase, apo form (without PLP) (enzyme, Lactobacillus brevis CGMCC 1.2028)
chain: B1 chain
notes: Tyrosine decarboxylase (TDC, EC 4.1.1.25) of Lactobacillus brevis CGMCC 1.2028; domains in the structure span residues 7-618; A selenomethionine form was used only for phasing; also called apo-LbTDC; LbTDC; source: E. coli BL21(DE3) harboring pET24a-tdc, purified (Ni2+-agarose column)

What was measured:
[1] = biological target: the molecule itself; experiment: crystal structure; LbTDC/PLP complex at a molar ratio of 1:4, 0.1 M sodium cacodylate trihydrate pH 7.0, 0.1 M MgCl2, 16% PEG 4000; space group P21
[2] = biological target: the molecule itself; experiment: crystal structure; apo-LbTDC, sitting-drop vapor diffusion at 18 °C, 0.1 M sodium cacodylate trihydrate pH 7.5, 0.2 M MgCl2, 18% PEG 1000; space group P21

Protein | stoichiometry N [1] | stoichiometry N [2]
B1 | 2 | 
B2 |  | 2
